These results are taken from the DeepSol protein solubility set.

A short description of the data set: soluble on expression in E. coli; label from the status in PepcDB or PDB records.
As to “MTYPTFALDDITSLHESAQVEFKLARGRDGQGQLPEDIWATYSSFANTLGGEIILGVREDRGHFTIEGIPNPQPVLQEFWEIIDNPSRVSCNILAISDVQLIEIMNKKLIRIRVPLAPEHLKPVFIGTDVYTGSYFRVGDADMHASRKQVMQMLRRAHHCNKLFKARLEHHHHHH”, the “soluble on expression in E. coli” value was “not soluble”. Then “MIDLHCHSTVSDGMLSPAEVVRLAHQNGCTLLALTDHDHTGGIAEARAEADKLGLRLINGVEISVTWRGRTIHVVGLDFDEQDENLQNLLAQVRKGRLKRLEAIAAKLEKKGIGGAYDGALALAANKEMVSRTHVAEFLIQAGHVKNKQQAFTKYLGDGKSCAVRHEWATLEDCVSAVNGAGGMAVIAHPMRYDLSATAKRNLFEEFKNLGGAGIEVHSGNCCKNDRLNYALLAERFGMLASAGSDFHRLNDFSGGILGACPELPENCKPVWEHFSRY”, with “not soluble”; and “MKTNFKQKIIEQARSEGLQVTALREQVLDIVLQQSGVIKAYNVLSQMQQQSEGVLAPPTAYRALDFWAEQGVLHKVAAVNGYILCSHAQHECDDHCHDHEEAEAHHSAFILVCTECGTADEQTLSHEWAALRAGVAESGFALKEEHVVLTGICKKCQQ”, with “not soluble”; and “MSLESSQSLELLKNKIEQYALNELSNYTEGKIQVTADNIDPRLNLKVCNDNKLEVFNPYQTPMLNTSTMGIKCLEENNHWTLYIPVKITIFKSVLVAKRALLKGTKISNSDIYQTELDVQKLKQGYFTDSKELIGLVCKHDITPNSPLNPFNIELAKLVHKGEQVSIIAAHDNLTVSMDGVAMDEGALGDSVKVKNLSSKRIIEAQVTGKKTVKVTFEGHHHHHH”, with “soluble”. For the sequence “MEQQSYTIIDETGAHARPATMLVQTASKFDSDIQLEYNGKKVNLKSIMGVMSLGVGKDAEITIYADGSDEADAIQAITDVLSKEGLTE”, the “soluble on expression in E. coli” value is given as “soluble”. The value for “KTIYLQSPYFIPDASLLEAIKIAALSGVDVRVMIPNKPDHAFVYRATTNYAGELMETGAKIFIYDNGFIHAKTLVVDGEIASVGTANMDFRSFRLNFEVNAFIYEKKMVQKLEDAFLEDILKSYQLTPELYAKR” was “not soluble”. Regarding “SKGLSFSSVYSVGNAAQTGVEDVLEHLDETFDAATSSHTLLLYIETISKPKRFLKHARSLVQKGCRIAAIKSGTSSDGGRAAASHTGAMLNSDVAVDALFRKAGVVRCYSREELATVGAVLQHPVLTGKNMAVITHAGGPAVMLTDALSNGGMSVPPIPEEKTRTLLSELFDGSSVANPIDILATGTAEQLSKVIDTCEKDLDTIDGMVVIFGSPGLFDVSDAYDVIREQQKKCKKPIYAVLPSVINAKEGMERFIAQGGILFEEEVALARAICKVYQTPKPEMTEESELPKAAEIRRLLAGKSGMLGTGDML”, the “soluble on expression in E. coli” value is on record as “not soluble”.

With “MRIPFPSIKYPLIAILRGLKPEETEGVVGALIETGFRAIEIPLNSPDPFRSIEIAARMAPADCLIGAGTVLSVEDVASLDAAGGKLMVSPNADAEVITAAREKGMVTMPGVLTPTEALVAAKAGATGLKFFPASIIGPSGINAIRTILPKELIIAAVGGVSDKNFSDYTSAGIRAFGLGTSLYKPGMTAAEVRERATVTLAAYDAAIGG”, the “soluble on expression in E. coli” value is listed as “not soluble”. As for “MAAYYRWKSFEENEDRPEKPRRYGVTEMRGPHYSVLSQNLLQEIFESMGQFVDGLKFSGGSNSLIPKSFIKQAIEMAHEHGVYVSTGDWAEHMLRSGPSAFKDYVEECKQLGFDTIELNANLLEVPEETLLRYVRLIKNGGLRAKPMFAVKFNKSDIPGRNRAFGSYVVPEPRSSEFVEDIDLLIRKAERCLEAGADTIMIDADDVCKYADSLRADIIAKVIGRLGIEKTMFEASDAKLVEWFIKRYGPNVNLYVDHSQIMDLECLRGRHLGKDHQSVLSSSYFLF”, the “soluble on expression in E. coli” value is “soluble”. In the case of “MSESSEWLIYRGAGEPHDGVDRLPDPPPWRDFTSRDAAGSGDGSEDRRLGAHRHLAELHRPGAEELEMINAALYLRRPLLVTGSPGAGKSTLAHSVAYELGLGNVLRWSIVSRSELQDGLYHYDAIARLQDVQIAAQADNGPGSGTPGAVDGIGGYIRLGPLGTALLPSDKPRVLLIDELDKSDIDLPNDLLNVLEEGEFAIPELERVADRLPDRTAEVLTADGVKVPVRDGRVRCRAFPFVVLTSNGERDFPAPLMRRCIHLELGRPDHNRLATFVRAHLGDEAARAGDDLVTRFLERSRSELLATDQLLNAIYLTDAAATPSRDRLADLLIQRLDRPRLEHHHHHH”, the “soluble on expression in E. coli” value is listed as “soluble”. Regarding “SKVWKYFGFDTNAEGCILQWKKIYCRICMAQIAYSGNTSNLSYHLEKNHPEEFCEFVKSN”, the “soluble on expression in E. coli” value is listed as “soluble”. With “STREHPPEPLDFFIWTVEDVGSWLEEINLGGYRQIFKENGVNGEYLESMSVFTTEQILHFIRRHHMKWGDFITLCKELRRIKVACLKGEQRVRRPWWAPSCLSVVFVKAAKRNRQSRVVSLKLES”, the “soluble on expression in E. coli” value is “soluble”.

In the case of “MQNELQTALFQAFDTLNLQRVKTFSVPPVTLCGPGSVSSCGQQAQTRGLKHLFVMADSFLHQAGMTAGLTRSLTVKGIAMTLWPCPVGEPCITDVCAAVAQLRESGCDGVIAFGGGSVLDAAKAVTLLVTNPDSTLAEMSETSVLQPRLPLIAIPTTAGTGSETTNVTVIIDAVSGRKQVLAHASLMPDVAILDAALTEGVPSHVTAMTGIDALTHAIEAYSALNATPFTDSLAIGAIAMIGKSLPKAVGYGHDLAARESMLLASCMAGMAFSSAGLGLCHAMAHQPGAALHIPHGLANAMLLPTVMEFNRMVCRERFSQIGRALRTKKSDDRDAINAVSELIAEVGIGKRLGDVGATSAHYGAWAQAALEDICLRSNPRTASLEQIVGLYAAAQ”, the “soluble on expression in E. coli” value is “soluble”. For the sequence “MTILNHTLGFPRVGLRRELKKAQESYWAGNSTREELLAVGRELRARHWDQQKQAGIDLLPVGDFAWYDHVLTTSLLLGNVPARHQNKDGSVDIDTLFRIGRGRAPTGEPAAAAEMTKWFNTNYHYMVPEFVKGQQFKLTWTQLLDEVDEALALGHKVKPVLLGPITWLWLGKVKGEQFDRLSLLNDILPVYQQVLAELAKRGIEWVQIDEPALVLELPQAWLDAYKPAYDALQGQVKLLLTTYFEGVTPNLDTITALPVQGLHVDLVHGKDDVVELHKRLPSDWLLSAGLINGRNVWRADLTEKYVQIKDIVGKRDLWVASSCSLLHSPIDLSVETRLDAEVKSWFAFALQKCHELALLCDALNSGDTAALAEWSAPIQARRHSTRVHNPAVEKRLAAITAQDSQRANVYEVRAEAQRARFKLPAWPTTTIGSFPQTTEIRTLRLDFKKGNLDANNYRTGIAEHIRQAIVEQERLGLDVLVHGEAERNDMVEYFGEHLDGFVFTQNGWVQSYGSRCVKPPIVIGDVSRPAPITVEWAKYAQSMTDKPVKGMLTGPVTILCWSFPREDVSRETIAKQIALALRDEVADLEAAGIGIIQIDEPALREGLPLRRSDWDAYLQWGVEAFRINAAVAKDDTQIHTHMCYCEFNDIMDSIAALDADVITIETSRSDMELLESFEEFDYPNEIGPGVYDIHSPNVPSVEWIEALLKKAAKRIPAERLWVNPDCGLKTRGWPETRAALANMVQAAQNLRRG”, the “soluble on expression in E. coli” value is recorded as “not soluble”. Take “MGSDKIHHHHHHMEPIIEIENFSAYYGEKIAVKNVTMKIFKNQITAIIGPSGCGKTTLLRSINRMNDHLPGFRVEGKIYFKGQDIYDPQLDVTEYRKRVGMVFQKPTPFPMSIYDNVAFGPRIHGVKSKHILDRIVEESLKKAALWDEVKSELNKSGTRLSGGQQQRLCIARALAVEPEVILLDEPTSALDPIATQRIEKLLEELSENYTIVIVTHNIGQAIRIADYIAFMYRGELIEYGPTREIVERPKNRLTEEYLTGKIG”: the “soluble on expression in E. coli” value is listed as “not soluble”. Take “MTWKPNVTVAAVIEQDDKYLLVEEIPRGTAIKLNQPAGHLEPGESIIQACSREVLEETGHSFLPEVLTGIYHWTCASNGTTYLRFTFSGQVVSFDPDRKLDTGIVRAAWFSIDEIRAKQAMHRTPLVMQCIEDYHAGKRYPLDILQYYD”: the “soluble on expression in E. coli” value was “soluble”. As to “MKGNYVQVYVMLPLDAVSVNNRFEKGDELRAQLRKLVEAGVDGVMVDVWWGLVEGKGPKAYDWSAYKQLFELVQKAGLKLQAIMSFHQCGGNVGDAVNIPIPQWVRDVGTRDPDIFYTDGHGTRNIEYLTLGVDNQPLFHGRSAVQMYADYMTSFRENMKDFLDAGVIVDIEVGLGPAGELRYPSYPQSHGWSFPGIGEFICYDKYLQADFKAAAAAVGHPEWEFPNDAGQYNDTPERTQFFRDNGTYLSEKGRFFLAWYSNNLIKHGDRILDEANKVFLGYKVQLAIKIAGVHWWYKVPSHAAELTAGYYNLHDRDGYRTIARMLKRHRASINFTCAEMRDSEQPPDAMSAPEELVQQVLSAGWREGLNVSCENALPRYDPTAYNTILRNARPHGINQSGPPEHKLFGFTYLRLSNQLVEGQNYVNFKTFVDRMHANLPRDPYVDPMAPLPRSGPEISIEMILQAAQPKIQPFPFQEHTDLPVGPTGGMGGQAEGPTCG”, the “soluble on expression in E. coli” value was “soluble”.

“GQTTIQVRVPYRVVGLVVGPKGATIKRIQQRTHTYIVTPGRDKEPVFAVTGMPENVDRAREEIEAHITLR”: the “soluble on expression in E. coli” value is reported as “soluble”.

For the sequence “MFYRDVLIESRERNIFMSKELQIRNSTVDFLVFTRDAREDGIEVRVQNGDVWLTQKAISQLFDVDRSVVTKHLSNIFKEGELDENSTCANFAQVADNGKTYNYKFYSLAAIIAVGYRINSERAMQFRTWATKVLDTFTKQGYVLDKSRLINGQIFDEDYFEHLIAEIQEIRASERRFYQKITDIYATAVDYDKNSQVTREFYATVQNKMHYAVHGNTAAEVIVARANHNKKHMGLKSWKNAPDGKIVKTDVSIAKNYLEKEELAELNEIVTMYLDYATRQARRHIPMTMEDWKTKLDAFLRFNDAEVLQDKGKVTAAIAKEFAESEFEKYRVIQDSLYESDFDKLMNDMEKNDAIH”, the “soluble on expression in E. coli” value is “not soluble”. As for “MTTATSTEPTLELQRLELAELINRHAGEPFGPASAIDDLYLVRYTENVRSVPTLAQPALCILAQGSKSLFLGDEQYAYDPLHYMVVSVTLPLSAVRLDASPENPSLGLRMDLDPAEISQLIAESGPMLVPNRPSGRGLYVERTDAALLDALLRLLRLLDTPRDIAMLAPLFRREILYRLLRGPQGYRLYEIALANSQTHRVCQAITWLNNNFQQPLRIEDLAREVNLSTSTLHHRFKAVTSMSPLQYQKQLRLQEARRLMLNDGLEAAVAAYRVGYESPSQFSREYSRLYGAPPIRDVARLRATAV”, the “soluble on expression in E. coli” value is recorded as “not soluble”. For the sequence “MNLKQAFIDNNSIRLGLSADTWQEAVRLAVQPLIDSKAVTSAYYDAIIASTEKYGPYYVLMPGMAMPHAEAGLGVNRNAFALITLTKPVTFSDGKEVSVLLTLAATDPSIHTTVAIPQIVALFELDNAIERLVACQSPKEVLEMVEESKDSPYLEGMDLNA”, the “soluble on expression in E. coli” value was “soluble”. Regarding “MGSDKIHHHHHHMKIKIGKVEKRLNQIIEEEGAVYLTLLDPEEENIEEIAENVKDYADAIMVGGSIGIVNLDETVKKIKKITKLPIILFPGNVDGLSRYADAVFYMSLMNSANTYWVVTAPTLGAITILKYNLEPIPMAYLCIEPAKKTAVGYVGEIREIPQNKPKITAMYCLSAKFFGMRWAYLEAGSGASYPVNNETIALSKKLSGINIIVGGGIRKPEIAYEKVLAGADAIVTGNLLEENPKAVEMMYDAIKKAGKEKLKNK”, the “soluble on expression in E. coli” value was “not soluble”.

Turning to “MSLNAQNAGINFLHGTTWAEAVAKAKAENKLIFIDFYTQWCGPCMNMAQTVFSLPTVGYYYNQTFINLKIDAEEGEGITLAKKYGVRSYPTYAFVDPATEEIVHRSSSRQTPEQFIQTGKDANIPTKRSFYLQEQYTKGNRERAFLIDYINYHYSVYARNNVQAAFDELIKGGAKLTDPDVWEVYVNTINGMNPYLKQVSDNYADFCQRFGKKAVDAKLAKETSYGELAEIEALCNYEGKDFNLKMIRINNDIREQKYEAAATQIDAMIADTTVNQQELISRLKFIARLGYKAEELPEFWFNKCVGYLQYIAYNQTDRDDAFIHQEYAAALEMVLRKLNGKAPIPACLSTEPAYGKKVYNMRPDALKMKPKREGHHHHHH”, the “soluble on expression in E. coli” value is given as “soluble”.
